Data taken from patent US20080188404.

Key:
[1] = molecular target: hybrid protein DAF-CR1B
[2] = molecular target: hybrid protein DAF-MCP
Chain of hybrid protein DAF-MCP (chain, as listed by the source): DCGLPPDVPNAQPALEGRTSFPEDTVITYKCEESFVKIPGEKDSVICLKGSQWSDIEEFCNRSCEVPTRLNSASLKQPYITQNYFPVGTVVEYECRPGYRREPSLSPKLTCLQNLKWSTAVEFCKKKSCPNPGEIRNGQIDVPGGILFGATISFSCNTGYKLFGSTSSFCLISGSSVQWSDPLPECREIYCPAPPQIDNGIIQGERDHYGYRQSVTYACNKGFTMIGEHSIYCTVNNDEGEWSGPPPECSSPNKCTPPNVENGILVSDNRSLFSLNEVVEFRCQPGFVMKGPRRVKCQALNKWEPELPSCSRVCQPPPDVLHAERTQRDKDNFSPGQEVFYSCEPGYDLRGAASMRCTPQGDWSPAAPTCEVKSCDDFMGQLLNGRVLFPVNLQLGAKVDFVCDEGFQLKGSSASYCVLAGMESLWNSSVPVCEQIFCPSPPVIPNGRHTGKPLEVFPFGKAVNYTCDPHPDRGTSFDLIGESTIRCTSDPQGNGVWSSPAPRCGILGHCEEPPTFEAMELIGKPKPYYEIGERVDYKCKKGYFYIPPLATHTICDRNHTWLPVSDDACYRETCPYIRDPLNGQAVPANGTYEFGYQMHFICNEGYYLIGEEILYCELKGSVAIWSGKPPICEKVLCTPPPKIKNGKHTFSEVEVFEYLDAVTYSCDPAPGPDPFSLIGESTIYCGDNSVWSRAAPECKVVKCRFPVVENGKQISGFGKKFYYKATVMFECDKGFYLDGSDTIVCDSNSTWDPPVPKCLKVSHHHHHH

Chain of hybrid protein DAF-CR1B (chain, as listed by the source): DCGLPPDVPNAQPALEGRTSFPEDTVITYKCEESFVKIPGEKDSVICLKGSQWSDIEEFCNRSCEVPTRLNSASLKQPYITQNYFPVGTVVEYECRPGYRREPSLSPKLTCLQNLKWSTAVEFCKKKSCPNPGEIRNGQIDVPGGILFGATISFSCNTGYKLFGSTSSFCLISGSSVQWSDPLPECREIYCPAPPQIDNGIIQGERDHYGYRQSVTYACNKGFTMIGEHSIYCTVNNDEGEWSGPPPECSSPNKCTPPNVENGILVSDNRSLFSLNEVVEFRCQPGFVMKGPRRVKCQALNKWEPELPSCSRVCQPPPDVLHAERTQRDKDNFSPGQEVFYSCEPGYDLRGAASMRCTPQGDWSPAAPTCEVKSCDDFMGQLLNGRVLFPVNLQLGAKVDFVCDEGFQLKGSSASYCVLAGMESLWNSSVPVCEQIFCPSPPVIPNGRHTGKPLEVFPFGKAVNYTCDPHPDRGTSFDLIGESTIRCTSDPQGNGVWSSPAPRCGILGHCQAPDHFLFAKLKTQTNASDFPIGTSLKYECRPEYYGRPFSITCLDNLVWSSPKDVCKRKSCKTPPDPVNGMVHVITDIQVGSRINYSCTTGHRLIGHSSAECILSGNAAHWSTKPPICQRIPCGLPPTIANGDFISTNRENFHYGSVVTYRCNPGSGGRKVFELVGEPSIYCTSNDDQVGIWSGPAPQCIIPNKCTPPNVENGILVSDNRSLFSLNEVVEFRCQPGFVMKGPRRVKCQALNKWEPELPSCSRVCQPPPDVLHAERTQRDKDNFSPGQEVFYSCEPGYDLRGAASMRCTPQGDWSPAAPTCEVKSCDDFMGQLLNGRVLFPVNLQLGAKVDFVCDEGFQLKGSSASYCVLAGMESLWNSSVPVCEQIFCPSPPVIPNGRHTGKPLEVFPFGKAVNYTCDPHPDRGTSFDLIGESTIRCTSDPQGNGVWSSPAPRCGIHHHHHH

B1: human factor I (protein)
chain: KVTYTSQEDLVEKKCLAKKYTHLSCDKVFCQPWQRCIEGTCVCKLPYQCPKNGTAVCATNRRSFPTYCQQKSLECLHPGTKFLNNGTCTAEGKFSVSLKHGNTDSEGIVEVKLVDQDKTMFICKSSWSMREANVACLDLGFQQGADTQRRFKLSDLSINSTECLHVHCRGLETSLAECTFTKRRTMGYQDFADVVCYTQKADSPMDDFFQCVNGKYISQMKACDGINDCGDQSDELCCKACQGKGFHCKSGVCIPSQYQCNGEVDCITGEDEVGCAGFASVTQEETEILTADMDAERRRIKSLLPKLSCGVKNRMHIRRKRIVGGKRAQLGDLPWQVAIKDASGITCGGIYIGGCWILTAAHCLRASKTHRYQIWTTVVDWIHPDLKRIVIEYVDRIIFHENYNAGTYQNDIALIEMKKDGNKKDCELPRSIPACVPWSPYLFQPNDTCIVSGWGREKDNERVFSLQWGEVKLISNCSKFYGNRFYEKEMECAGTYDGSIDACKGDSGGPLVCMDANNVTYVWGVVSWGENCGKPEFPGVYTKVANYFDWISYHVGRPFISQYNV
[1]
  cofactor assay: factor I cleavage of C3b, Western blot: DAF-CR1B acts as cofactor for factor I as shown by the appearance of a band at 29 kDa
[2]
  cofactor assay: factor I cleavage of C3b, SDS-PAGE and Western blot with anti-human C3 polyclonal antibody: Supernatants with factor I and either DAF-MCP or DAF-CR1BB both exhibited 43 and 40 kDa bands corresponding to formation of iC3b and C3c, respectively
